From paper doi:10.1101/2023.05.09.538545v2

Columns and labels:
Assay in all cases: purified protein
Type in all cases: biochemical, Escherichia coli
Conditions in all cases: 0.05 M phosphate buffer, pH 7.0, 35 °C
[1] = substrate: CCCC(=O)CC(=O)N[C@H]1CCOC1=O
[2] = substrate: CCCCCC(=O)CC(=O)N[C@H]1CCOC1=O
[3] = substrate: CCCCCCCCCC(=O)CC(=O)N[C@H]1CCOC1=O
[4] = substrate: CCCCCCCCCC(=O)N[C@H]1CCOC1=O

B1: ecPGA (Escherichia coli penicillin G acylase) (Escherichia coli) (protein)
chain 1: EQSSSEIKIVRDEYGMPHIYANDTWHLFYGYGYVVAQDRLFQMEMARRSTQGTVAEVLGKDFVKFDKDIRRNYWPDAIRAQIAALSPEDMSILQGYADGMNAWIDKVNTNPETLLPKQFNTFGFTPKRWEPFDVAMIFVGTMANRFSDSTSEIDNLALLTALKDKYGVSQGMAVFNQLKWLVNPSAPTTIAVQESNYPLKFNQQNSQTA
chain 2: SNMWVIGKSKAQDAKAIMVNGPQFGWYAPAYTYGIGLHGAGYDVTGNTPFAYPGLVFGHNGVISWGSTAGFGDDVDIFAERLSAEKPGYYLHNGKWVKMLSREETITVKNGQAETFTVWRTVHGNILQTDQTTQTAYAKSRAWDGKEVASLLAWTHQMKAKNWQEWTQQAAKQALTINWYYADVNGNIGYVHTGAYPDRQSGHDPRLPVPGTGKWDWKGLLPFEMNPKVYNPQSGYIANWNNSPQKDYPASDLFAFLWGGADRVTEIDRLLEQKPRLTADQAWDVIRQTSRQDLNLRLFLPTLQAATSGLTQSDPRRQLVETLTRWDGINLLNDDGKTWQQPGSAILNVWLTSMLKRTVVAAVPMPFDKWYSASGYETTQDGPTGSLNISVGAKILYEAVQGDKSPIPQAVDLFAGKPQQEVVLAALEDTWETLSKRYGNNVSNWKTPAMALTFRANNFFGVPQAAAEETRHQAEYQNRGTENDMIVFSPTTSDRPVLAWDVVAPGQSGFIAPDGTVDKHYEDQLKMYENFGRKSLWLTKQDVEAHKESQEVLHVQR
Km [1]: 510 ± 30 µM
kcat [1]: 0.0100 ± 0.0002 s⁻¹
Km [2]: 880 ± 40 µM
kcat [2]: 0.0077 ± 0.0004 s⁻¹
Km [3]: 2500 ± 100 µM
kcat [3]: 0.0043 ± 0.0002 s⁻¹
Km [4]: 2980 ± 200 µM
kcat [4]: 0.0045 ± 0.0004 s⁻¹
